Measurements: the nanobody polyreactivity screen of Harvey et al. (2022)

Assay: yeast display, Sf9 membrane polyspecificity reagent, FACS + sequencing; frameworks hold sequencing errors
Outline: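 Galactose-induced (36–48 hours) yeast carrying a synthetic nanobody display library were exposed to 10% biotinylated, detergent-solubilized Sf9 membrane reagent at 4 °C for 1 hour. FACS followed streptavidin microbead enrichment, using low and high (top ~1%) gates for expression (anti-HA) and reagent binding (streptavidin). Colony PCR, MiSeq 2 × 250 sequencing and CDR-length filtering followed. Labels for polyreactivity reflect the gate of origin.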

| Sequence | polyreactivity (PSR sort gate) |
| --- | --- |
| QVQLVESGGGLVQAGGSLRLSCAASGSTFLAYAMGWYRQAPGKERELVAAISSSGGRPYYADSVKGRFTISRDYAKNTVYLQMNSLNPEDTAVYYCAARYKNRGGFGYWGQGTRVTVSS | high polyreactivity |
| QVQLVESGGGLVQAGGSLRLSCAASGRTFWVYAMGWYRQAPGKERELVAGISSGASTYYADSVKGRFTISRDNAKNTVYLQMNSLKPEDTAVYYCAAPYYRLTGWSRYDYWGQGTQVTVSS | high polyreactivity |
| QVQLVESGGGLVQAGGSLRLSCAASGRTFTWNVMGWYIQAPGKERELVAAISSSGGDTYYADSVKGRFTISRDNAKNTVYLHMNSLKPEDTAVYYCAAGQVYSGYEYWGQGTQVTVSS | low polyreactivity |
| QVQLVESGGGLVQAGGSLRLSCAATGIILGPYAMGWYRPAPGKERELVAAISWRGGSTYNADSVKGRFTISRDNAKNTVYLQMNSLKPEDTAVYYCATASRTSRTGWAGYYCGQGTQVTVSS | high polyreactivity |
| QVQLVESGGGLVQAGGSLRLSCAASGRTFNRYGMGWYRQAPGKERELVASITSGGSTNYADSVKGRFTISRDNAKNSVYLQMNSLKPEDTAVYYCAKRSIGRYPRTYDYWGQGTQVTVSS | low polyreactivity |
| QVQLVESGGGLVQAGGSLRLSCAASGFTFDIYAMGWYRQAPGKEREMVADITSGGSTDYADSVKGRFTISRDNAKNTVYLQMNSLKPEDTAVYYCNGAVFYDPEWQYDYWGQGSQVTVSS | low polyreactivity |
| QVQLVESGGGLVQAGGSLRLICEASGFIFDDNAIGSYRQAPGKERELVAAITSGGGSTYYADSVKGRCTISRDYAKNTVYLHMNSLKPEDTAVYYCNAVPSQHDEFDYWGQGTQVTVSS | low polyreactivity |
| QVQLVESGGGLVQAGGSLRLSCAASGRIFSFNAMGWYRQAPGKERELVAGITDSGGSTYYADSVKGRFTISRDNAKNTVYSQMNSLKPEDTAVYYCNAEWPYSRVRDYFYAYDYWGQGTQVTVSS | low polyreactivity |
| QVQLVESGGGLVQAGGSLRLSCAASGSTFYPYAMGWYRQAPGKERELVAAISYSGGSTYYADSVKGRFTISRDNAKNTVYLQMNSLKPEDTAVYYCAAYYRVYGASYDYWGQGTQVTVSS | high polyreactivity |
| QDHLVESGGGLVQAGGSLRLSCAASGRTVGIYAMGWYRQAPGKVRELVASISWSGGRTYYADSVKGRFTISRENAKNTVYLQMNSLKPEDTAVYYCAAYGVYYPRSWLYFDWYGYCGQGTQVTVSS | high polyreactivity |
| QVQLVESGVGLVQAGGSLRLSCAASGSIFYSNAMGRYRQAPGKERELVASIRGSGVSTYYADSVKGRFTISRDNAKNTVYLQMNRLKPEDTAVYYCAARYGRSYFGYYYWGQGTQVTVSS | high polyreactivity |
| QVQLVESGGGLVQAGGSLRLSCAASGRIFFNYAMGWYRQAPGKERELVAAIRGGGSTYADSVKGRFTISCDNAKNTVYLQMNSLKPEDTAVYYCAARYSGSPYHTRRYYYWGQGTQVTVSS | high polyreactivity |
| QVQLVESGGGLVQAGGSLRLSCAASGRIFTKYAMGWYRQAPGKERELVAAISGSGGPTYYADSVKGRFTISRDNAKNTVYLQINSLKPEDTAVYYCGVPEIFDPKYQNDYWGQGTQVTVSS | low polyreactivity |
| QVHLVESGGGLVQAGGSLRLSCAASGIILYGYAMGWYRQAPGKERELVAAITKSGGSTYYADSVKGRFTISRDNAKNTVYLLMNSLKPEDTAVYYCAAKLWGIWYYGYRPDDYWGQGTQVTVSS | low polyreactivity |
| QVQLVESGGGLVQAVGTLRLSCAASGSIFGYNAMGWYRHAPAKEREFVAAIRWSSGSTYYADSVKGRFTISRDNAMNTVFLQMNSLKPEDTAVNYCATRQTYLYWGQGTQVTVSS | high polyreactivity |
| QVQLVESGGGLVQAGGSLRLSCAASGSIFGSYTMGWYRQAPGKERELVAAITTSGSSTYYADSVKGRFTISRDNAKNTVYLQMNSLKPEDTAVYYCSAEYYVTYPPYGWYDYWGHGTQVTVSS | high polyreactivity |
| QVQLVESGGGLVQAGGSLRLSCAASGRIDHNAMDWYRQAPGKERELVAAITWSGGGTYYADSVKGRFTISRDNAKNTVYLQMNSLKPEDTAVYYCNVRRAFSGWRGYDYWGQGTQVTVSS | high polyreactivity |
| QVQLVESGGGLVQAGGSLRLSCAASGSIFWGTAMGWERQAPGKERELVAAISWSGGSTYYADSVKGRFTISRDNAKNTVDLQMHSLKPEDTAVYYCAARFKRVGSIPYYYWGQGTQVTVSS | high polyreactivity |
| QVQIVESGGGLVQAGGSLRLSCAASGSNFLFYVMGWYTQAPVKERELVAAINTGVSTNYADSVKGRFTISRDNAKNTVYLQLNSLKPEDTAVYYCNALPYTSDGRGGYWGQGSQVTVSS | low polyreactivity |
| QVQLVETGGGLVQAGGSLRLSCAASGSTFAKYVMGWYRPAPGKERELVAAISRRGSSTYYADSEKGRFTISRDYAKNTVYLQMNSLKPEDTAVYYCAARFRYSGFEGMDYWGQGNQVTVSS | high polyreactivity |
| QVQLVESGGGLVQAGGSLRLSCAASGSTILRYAMGWYRQAPGKERELVATISRSDDGTYYADYVKGRFTISRDNAKNTVYLQMNSLKPEDTAVYYCGARSWYLYYYWGLGTQVTVSS | low polyreactivity |
| QVQIVESGGGLVQAGGSLRLSCAASGSTFPSYAMGWYRQATGKEREWVAAITRSCGRTYYADSVKGRFTISRDNSKHTVYLQMNSLKPEDTAVYYCAADLGSNYDYWGQGTQVTVLS | low polyreactivity |

| Sequence | polyreactivity (PSR sort gate) |
| --- | --- |
| QVQLVESGGGLVQAGGSLRLSCAASGITSFFYDMGWYRQAPGKERELVAGISSGGSTNYADSVKGRFTISRDNAKNTVYLQMNSLKPEDTAVSYCAKDYPHTVSLGEYDYWGQGTQVTVSS | high polyreactivity |
| QVQLVESGGALVQAGGSLRLSCAASGSTFDDNAMGWYRQAPGKERELVASITYRGGSTYYADSVKGRFTISRDNAKNTVYLQMNSLKPEDTAVYYCAKGHYFKYDYWGQGTQVTVSS | low polyreactivity |
| QVQLVESGGGLVQAGGSLRISCAASGSNFRTYVMGWYRQAPGKERELVAAISRRGGSTYYADSVKGLFTISRDNAKKTVYLQMNSLKPEDTAVYYCAAEDEYSLEFSTLDYWGQGTQVTVSS | high polyreactivity |
| QVQLVESGGGLVQAGGSLRLSCAASGYTFHGNAMGWYRQAPGKERELVAAISRNGGRTYYADSVKGRFTISRDNAKNTVYLQMHSLKPEDTAVYYCNASKFYGVRFKYDYWGQGTQVTVSS | high polyreactivity |
| QVQLVESGGGLVQAGASLRLSCAASGIIYAYNAMGWYRPAPGKERELVATITDSGGSTSYADSVKGRFTISRDNAKNTVYLQMNSLKPEDTAVYYCAVLPVYWYWRNYVYLSGYDYWGQGTQVTVSS | low polyreactivity |
| QVQLVESRGGLVQAGGSLRLSCAASGYTFYGYAMGWYRQAPGKERELVAAISGSGGSTYYADSVKGRFTISRDNAKNTVYLQMNSLKREDTAVYYCNKARYAIYRGDGYDYWGQGTQVTVSS | high polyreactivity |
| QVQLVESGGGLVQAGGSLRLSCAASGIIFGGNVMGWYRQAPGKERELVAAISGTGDNTYYADSVKGRFTISRDNAKNTVYLQMNSLKPEDTAVYYCNTVYYGWPRRYGYWGQGTQVTVSS | high polyreactivity |
| QVQLVESGGGLVQAGGSLRLSCAASGIIFDDNTMGWYRQAPGKERELVAAISSSGGSTYYADSVKGRFTISRDNAKNTVYLQMNSLKPEDTAVYYCAAAVYYTYPYIVYRNYPEFDYWGQGTQVTVSS | low polyreactivity |
| QVQLVESGGGLVQAGGSLRLSCAASGFTFWQYAMGWYRQAPGKERELGAAITWDGGSTYYADSVKGRFTISRDTAKNTVYLQMNSLKPEDTAVYYRAKLFGGTYYEYDYWGQGTQVTVSS | low polyreactivity |
| QVQLVESGGGLVQAGGSLRLSCAASGSIFFVYDMGWYRQAPGKERELVAAITWSGGRTTYADSVKGRFTISRDNAKNTVYLQMNSLKPEDTAVYYCAKAWPDHWYSRYDYWGQGTQVTVSS | low polyreactivity |
| QVQLVESGGGLVQAGGSLRLSSAASGRTFAVNAMGSYRQAPGKERELLAAISQRAGRTYYADSVKGRFTISRDNEKNTVYLQMNSLKPEDTAVYYCNVVGFRSRVGSRGYWGLGTQVTVSS | high polyreactivity |
| KVQLVESGGGLVQAGGSLRLSCAASGITLSYYAMGWYSQAPGKEMELVAAINRGGRTYYADSVTGRFTISRDNAKNTVYLQMNSLKPEDTAVYYCATAYASSQKYYYWGQGTQVTVSS | high polyreactivity |
| QVQLVESGGGLVQAGGSLRLSCADSGSTFVLNAMGWYRQAPGKERELVAAISRCGASTYYADSVKGRFTISRDNAKNTVYLQMNSLKPEDTAVYYCNASGYGPGVVIYLVLYDYWGQGTQVTVSS | low polyreactivity |
| QVQLVESGGGLVQAGGSLRLSCAASGSTFYLYAMGWYRQAPGKERELVAAISWSGDSTYYADSVKGRFTISRDNAKNTVYLQMNSLKPEDTAVYYCAAEFYWGDLSYWGQGTQVTVSS | high polyreactivity |
| QVQLVESGGGLVQAGGSLRLICAASGRIFYYYTMGWYRQAPGKERELVAAITRSGSSTYADSVKGRFTISRDNAKNTVYLQMNSLKPEDTAVYYCAADYIRRYDYWGQGTQVTVSS | low polyreactivity |
| QVQLVESGGGLVQSGGSLRLSCAASGRTYDSYAMGWYRPAPGKERELVAVISRSGRTYYADSVKGRFTISRDNAKNTVYLQMNSLKPEDTAVYYCAAKWFRTWSGYWGQGSQVTVSS | high polyreactivity |
| QVQLVESGGGLVQAGGSLRLSCAASGSIFDYNTMGWYSQAPGKERELVAAISSGGSTYYADSVKGRFTISRDNAKTTVYLQMKSLKPEDTAVYYCAARRAGWWGFYYWGQGTQVTVSS | high polyreactivity |
| QVQLVESGGGLVQAGGSLRLSCAASGNIFLYYAMGWSRQAPGKERELVADIDSSGASTYYADSVKGRFTISRDNAKNNVYLQMNSLKPEDTAVYYCAAEFHWWYAGYDYGYWGQGTQVTVSS | low polyreactivity |
| QVQLVESGGGLVQAGGSLRLSCAASGRIFYGYAMGWYRQAPGNERELVAAISSSGGSTYYADSVKGRFTISRDNAKYTVYLQMNSLKPDDTAVYYCNAQLYRPGYWYDYWGQGTQVTVSS | high polyreactivity |
| QVQLVESGGGLVQAGGSLRLSCAASGLIFGPYTMGWYRQAPGKERELVAAISRSGGITYYADSEKGRFTISRDNAKNTVYLQMNSLKPEDTAGYYCAARYSTQWSRYDYWGQGTQVTVSS | high polyreactivity |
| QVQLVESGGGLVQAGGSLRLSCSASGSTITTYAMGWYRQAPGKERELVAAISTNGGRTCYADSVKGRFTISRDYAKNTVSLQMNSLKPEDTAVYYCAAEYGLYAPGYYYWGQGTQVTVSS | low polyreactivity |
